Drawing on patent US20150307546A1, this text covers molar excess of ligand for 1 substance.

The test deals with horseradish peroxidase (HRP) (horseradish) (UniProt P00433). As to the kind of experiment: affinity precipitation at varied ligand to HRP ratio; peroxidase activity assay.

Several values for one entry are separate records, joined by “and”; a condition that tells them apart may be missing. Equal values may be shown once.

Sequence of UniProt P00433 (P00433 31-338): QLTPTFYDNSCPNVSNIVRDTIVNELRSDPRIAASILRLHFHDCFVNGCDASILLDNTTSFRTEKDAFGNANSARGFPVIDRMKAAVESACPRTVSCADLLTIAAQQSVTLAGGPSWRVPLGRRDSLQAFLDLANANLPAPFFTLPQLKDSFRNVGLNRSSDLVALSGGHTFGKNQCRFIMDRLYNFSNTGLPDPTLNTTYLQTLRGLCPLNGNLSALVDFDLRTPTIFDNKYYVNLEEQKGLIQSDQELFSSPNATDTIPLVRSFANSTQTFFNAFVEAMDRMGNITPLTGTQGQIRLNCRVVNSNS

For “RSL-ELP40 (fucose lectin from Ralstonia solanacearum fused by a 10 amino acid glycine rich linker to (designed binder)”, the molar excess of ligand at which full recovery was approached (mol ligand per mol HRP) is 15 and 20.
